Data: patent KR20130126543A
Values belong to the binder of their own block, whether it stands above or below them.

Key:
Fc = test: mono phage ELISA; Fc coated 100 ng/well; anti-M13-HRP
IL-6R-Fc 항원 (human) [1] = molecular target: IL-6R-Fc 항원 (human) (UniProt P08887); test: mono phage ELISA; antigen coated 100 ng/well; anti-M13-HRP
IL-6R-Fc 항원 (human) [2] = molecular target: IL-6R-Fc 항원 (human) (UniProt P08887); test: mono phage ELISA; ratio of the IL-6R full signal to the a-myc signal

Chain of UniProt P08887 (P08887 20-365 limits assumed): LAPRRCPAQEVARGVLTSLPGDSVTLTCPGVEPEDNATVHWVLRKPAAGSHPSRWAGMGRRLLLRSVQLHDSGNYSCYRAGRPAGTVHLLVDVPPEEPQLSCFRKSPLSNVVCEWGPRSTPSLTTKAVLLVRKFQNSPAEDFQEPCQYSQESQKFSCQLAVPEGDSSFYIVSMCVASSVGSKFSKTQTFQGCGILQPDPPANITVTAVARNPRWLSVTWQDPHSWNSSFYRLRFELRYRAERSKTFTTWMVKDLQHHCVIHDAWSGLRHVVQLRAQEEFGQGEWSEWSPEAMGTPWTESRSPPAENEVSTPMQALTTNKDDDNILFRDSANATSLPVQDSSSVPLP

OD 490 nm (Fc) (Fc): 0.0415 OD490
OD 490 nm (IL-6R full) (IL-6R-Fc 항원 (human) [1]): 2.34 OD490
Ratio (IL-6R-Fc 항원 (human) [2]): 7.71
B2: 모노 파아지 클론 D2 (scFv, V domains shown)
VH: QVQLVESGAEVKKPGSSVKVSCKGSGDTFPNYAINWVRQAPGQGPEWMGRIIPMLGTSDYAEKFQGRVTITADKSTNTAYMGLNSLRSEDTAVYYCVKGPRYYGTDSYYLEKWGQGTMVTVSS
VL: SQLVLTQPPSVSGAPGQTVTISCTGPTIGAGYDVHWYQQLPGAAPKLLIYGNLNRPSGVPDRFSGSKSGTSASLAITDLQAEDEADYYCHTYDSSLSGSWVFGGGTKLTVL

OD 490 nm (Fc) (Fc): 0.0421 OD490
OD 490 nm (IL-6R full) (IL-6R-Fc 항원 (human) [1]): 2.48 OD490
Ratio (IL-6R-Fc 항원 (human) [2]): 31.1
B3: 모노 파아지 클론 A7 (scFv, V domains shown)
VH: QMQLVESGGGLVQPGTSLRLSCAASGFKFEDYAMHWVRQAPGKGLEWVSGVSWNSGTIAYVDSVKGRFTISRDNAKNSLYLQMNSLRAEDTAVYYCARDFTYFYESSGYYAFDLWGQGTMVTVSS
VL: SQLVLTQPPSVSGAPGQRVTISCTGTNSNIGAGYDVHWYQQVPGTTPKLLIYGNTNRPSGVPDRFSGSKSGTSASLAITGLQAEDGGDYYCQSFDSSLTGSVFGTGTKVTVL

The remaining lines, values behind:

B1: 모노 파아지 클론 B10 (scFv, V domains shown)
VH: QVQLVESGGGLVQPGGSLRLSCAASGFIFDDYAMFWVRQVPGKGLEWVAGINWNGNGIGYGDSVRGRFIISRDNARNSLDLQMNSLRAEDTAVYYCARPSLYGGNSEFDLWGQGTLVTVSS
VL: B2 VL
OD 490 nm (Fc) (Fc): 0.0406 OD490
OD 490 nm (IL-6R full) (IL-6R-Fc 항원 (human) [1]): 2.1 OD490
Ratio (IL-6R-Fc 항원 (human) [2]): 18.6

B4: 모노 파아지 클론 F2 (scFv, V domains shown)
VH: QVQLVESGAEVKKPGASVKVSCKASGYTFTNYYMHWVRQAPGQGLEWMGIINPSGGNTGYAQKFQGRVTMTRDMSTSTAYMELSSLRSEDTAVYYCARGLPWGENGLDVWGQGTTVTVSS
VL: SQLVLTQPSSVSGAPGQTVTISCTGSSSNIGAGYDVHWYQQLPGTAPKVLIYGDSDRPSGVPDRFSGSKSATSASLAITGLQAEDEADYYCQSYDSSLSAYVFGTGTKVTVL
OD 490 nm (Fc) (Fc): 0.0405 OD490
OD 490 nm (IL-6R full) (IL-6R-Fc 항원 (human) [1]): 2.86 OD490
Ratio (IL-6R-Fc 항원 (human) [2]): 9.96
